For this assay, the target named is T1, PYR1 (Arabidopsis thaliana, UniProt O49686).
T1 construct: expressed in transfected cells; host or cells: S. cerevisiae strain Y190
T1 sequence (O49686 1-191): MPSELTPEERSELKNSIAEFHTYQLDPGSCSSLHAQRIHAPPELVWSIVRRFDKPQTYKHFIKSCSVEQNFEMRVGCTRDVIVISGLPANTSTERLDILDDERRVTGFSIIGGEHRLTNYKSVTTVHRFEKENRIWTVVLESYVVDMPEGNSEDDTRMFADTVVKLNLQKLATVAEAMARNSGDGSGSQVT
As to the kind of experiment: Yeast two hybrid of pACT-HAB1 site saturation mutants with pBD-PYR1 on 10 μM ABA, β-galactosidase staining. The following applies: S. cerevisiae Y190, 10 μM ABA; dead = lack of detectable staining in comparison to wild type control. Format: cell-based. The arrangement: key: x: Mutations in HAB1 that disrupt HAB1 interaction with PYR1. Summed up:
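HAB1 (lacking three N-terminal residues) site-saturation mutants in pACT were co-transformed with pBD-PYR1 into S. cerevisiae Y190 and spotted on SD (-Leu,-Trp) with 10 μM ABA. After 2 days at 30 °C, chloroform-lysed colonies were stained for β-galactosidase; "dead" means no detectable staining versus wild-type pair.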

Substitutions are numbered along the chain they refer to. Names may count otherwise.

B1: G247T: HAB1 mutant (protein, UniProt Q9CAJ0 23-511, looked up, variant G247T)
Protein phosphatase 2C 16: SPVEITQLKNVTDAADLLSDSENQSFCNGGTECTMEDVSELEEVGEQDLLKTLSDTRSGSSNVFDEDDVLSVVEDNSAVISEGLLVVDAGSELSLSNTAMEIDNGRVLATAIIVGESSIEQVPTAEVLIAGVNQDTNTSEVVIRLPDENSNHLVKGRSVYELDCIPLWGTVSIQGNRSEMEDAFAVSPHFLKLPIKMLMGDHEGMSPSLTHLTGHFFGVYDGHGTHKVADYCRDRLHFALAEEIERIKDELCKRNTGEGRQVQWDKVFTSCFLTVDGEIEGKIGRAVVGSSDKVLEAVASETVGSTAVVALVCSSHIVVSNCGDSRAVLFRGKEAMPLSVDHKPDREDEYARIENAGGKVIQWQGARVFGVLAMSRSIGDRYLKPYVIPEPEVTFMPRSREDECLILASDGLWDVMNNQEVCEIARRRILMWHKKNGAPPLAERGKGIDPACQAAADYLSMLALQKGSKDNISIIVIDLKAQRKFKTRT
For B1, the “Mutations in HAB1 that disrupt HAB1 interaction with PYR1” value (from here on “Mutations”) is “x”.

B2: G247I: HAB1 mutant (protein, UniProt Q9CAJ0 23-511, looked up, variant G247I)
Protein phosphatase 2C 16: B1 Protein phosphatase 2C 16 with T225I
In the case of B2, the “Mutations” value was “x”.

B3: G247Y: HAB1 mutant (protein, UniProt Q9CAJ0 23-511, looked up, variant G247Y)
Protein phosphatase 2C 16: B1 Protein phosphatase 2C 16 with T225Y
Regarding B3, the “Mutations” value is given as “x”.

B4: G247K: HAB1 mutant (protein, UniProt Q9CAJ0 23-511, looked up, variant G247K)
Protein phosphatase 2C 16: B1 Protein phosphatase 2C 16 with T225K
Take B4: the “Mutations” value is on record as “x”.

B5: G247W: HAB1 mutant (protein, UniProt Q9CAJ0 23-511, looked up, variant G247W)
Protein phosphatase 2C 16: B1 Protein phosphatase 2C 16 with T225W
For the molecule B5, the “Mutations” value is recorded as “x”.

B6: G247V: HAB1 mutant (protein, UniProt Q9CAJ0 23-511, looked up, variant G247V)
Protein phosphatase 2C 16: B1 Protein phosphatase 2C 16 with T225V
Regarding B6, the “Mutations” value is “x”.

B7: G247F: HAB1 mutant (protein, UniProt Q9CAJ0 23-511, looked up, variant G247F)
Protein phosphatase 2C 16: B1 Protein phosphatase 2C 16 with T225F
For the molecule B7, the “Mutations” value is listed as “x”.

B8: G247E: HAB1 mutant (protein, UniProt Q9CAJ0 23-511, looked up, variant G247E)
Protein phosphatase 2C 16: B1 Protein phosphatase 2C 16 with T225E
For B8, the “Mutations” value was “x”.

(Values after patent publication US10919943B2, “Mutant proteins enabling agrochemical control of plant gene expression” (The Regents of the University of California, priority 2016, dated 2021).)
